The values that follow come from US10253076B2, “Peptides and combination of peptides for use in immunotherapy against ovarian cancer and other cancers” (immatics biotechnologies GmbH, priority 2015, dated 2019).

The target of this assay is HLA-A*02:01 (Homo sapiens, UniProt P04439, D140Y/D185E/D98H/E176V/E277Q/G131W/G231S/I119V/I121R/I166T/I218V/L300P/L318F/N151K/N90K/P208A/P217A/Q86G/Q94H/R138H/R169H/T345S). Kind of assay: MHC binding assay (UV-ligand exchange, beta2m ELISA, peptide exchange yield). The following applies: binding of HLA-class I restricted peptides to HLA-A*02:01, ranged by peptide exchange yield (UV-ligand exchange, β2m ELISA). A digest of the protocol: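 Peptide–HLA-A*02:01 complexes made by UV-mediated exchange of a photocleavable peptide with the test peptide. Exchange products diluted 100-fold on streptavidin-coated plates, 1 h at 37°C, then HRP anti-β2m 1 h at 37°C; TMB read at 450 nm to give exchange yield.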
In general terms: ELISA stands for enzyme-linked immunosorbent assay.

As to “577 (VMFEDGVLMRL; listed as Homo sapiens) [compound 577]”, the Peptide exchange entry was “″+++″ (≥50% = +++)”.

For “583 (ILANDGVLLAA; listed as Homo sapiens) [compound 583]”, the Peptide exchange entry is on record as “″+++″ (≥50% = +++)”. As for “137 (TLVLTLPTV; listed as Homo sapiens) [compound 137]”, the entry is “″++++″ (≥75% = ++++)”; as for “576 (ILLNNSGQIKL; listed as Homo sapiens) [compound 576]”, “″++++″ (≥75% = ++++)”. As for “373 (SLLEDKGLAEV; listed as Homo sapiens) [compound 373]”, the entry is “″++″ (≥20% = ++)”; as for “81 (FLFSQLQYL; listed as Homo sapiens) [compound 81]”, “″++″ (≥20% = ++)”; as for “339 (GLWEIENNPTVKA; listed as Homo sapiens) [compound 339]”, “″++++″ (≥75% = ++++)”. The same measure for “599 (YLLNDASLISV; listed as Homo sapiens) [compound 599]”: “″+++″ (≥50% = +++)”.

For “109 (IILSILEQA; listed as Homo sapiens) [compound 109]”, the Peptide exchange result is listed as “″++++″ (≥75% = ++++)”. “563 (WLLPYNGVTV; listed as Homo sapiens) [compound 563]”: the Peptide exchange entry is listed as “″+++″ (≥50% = +++)”. As for “173 (LLDSASAGLYL; listed as Homo sapiens) [compound 173]”, the Peptide exchange result is given as “″+++″ (≥50% = +++)”. As for “248 (FLFPNQYVDV; listed as Homo sapiens) [compound 248]”, the entry is “″+++″ (≥50% = +++)”; as for “590 (SLIEKLWQT; listed as Homo sapiens) [compound 590]”, “″++″ (≥20% = ++)”. The same measure for “189 (ALQRKLPYV; listed as Homo sapiens) [compound 189]”: “″+++″ (≥50% = +++)”; for “486 (AVMESIQGV; listed as Homo sapiens) [compound 486]”: “″+++″ (≥50% = +++)”; for “320 (KMFEFVEPLL; listed as Homo sapiens) [compound 320]”: “″++++″ (≥75% = ++++)”. The same measure for “149 (NLLELFVQL; listed as Homo sapiens) [compound 149]”: “″+++″ (≥50% = +++)”; for “322 (TLMTSLPAL; listed as Homo sapiens) [compound 322]”: “″+++″ (≥50% = +++)”. Turning to “235 (YLNDLHEVLL; listed as Homo sapiens) [compound 235]”, the Peptide exchange entry is “″++++″ (≥75% = ++++)”.

With “209 (KLIESKHEV; listed as Homo sapiens) [compound 209]”, the Peptide exchange entry was “″++″ (≥20% = ++)”. For “250 (ALSEEGLLVYL; listed as Homo sapiens) [compound 250]”, the Peptide exchange result is recorded as “″+++″ (≥50% = +++)”. As for “66 (FLDENIGGVAV; listed as Homo sapiens) [compound 66]”, the entry is “″+++″ (≥50% = +++)”. As for “171 (LLLPLQILL; listed as Homo sapiens) [compound 171]”, the Peptide exchange entry is recorded as “″+++″ (≥50% = +++)”. Turning to “130 (FLWNGEDSALL; listed as Homo sapiens) [compound 130]”, the Peptide exchange result was “″+++″ (≥50% = +++)”. As for “50 (SLSELEALM; listed as Homo sapiens) [compound 50]”, the Peptide exchange entry was “″+++″ (≥50% = +++)”. As for “138 (YQYPRAILSV; listed as Homo sapiens) [compound 138]”, the entry is “″+++″ (≥50% = +++)”; as for “580 (LLMENAERV; listed as Homo sapiens) [compound 580]”, “″++″ (≥20% = ++)”; as for “485 (NVPDSFNEV; listed as Homo sapiens) [compound 485]”, “″+++″ (≥50% = +++)”. On to “176 (YLMEGSYNKVFL; listed as Homo sapiens) [compound 176]”, for which the Peptide exchange result is reported as “″++″ (≥20% = ++)”. As for “76 (ILIDSIYKV; listed as Homo sapiens) [compound 76]”, the entry is “″+++″ (≥50% = +++)”. The same measure for “222 (NLIENVQRL; listed as Homo sapiens) [compound 222]”: “″++″ (≥20% = ++)”. The same measure for “427 (ALLPLSPYL; listed as Homo sapiens) [compound 427]”: “″+++″ (≥50% = +++)”; for “402 (VLFSGALLGL; listed as Homo sapiens) [compound 402]”: “″++″ (≥20% = ++)”.

Take “39 (SVAPNLPAV; listed as Homo sapiens) [compound 39]”: the Peptide exchange entry was “″+++″ (≥50% = +++)”. As for “302 (ALLQEGEVYSA; listed as Homo sapiens) [compound 302]”, the entry is “″+++″ (≥50% = +++)”. As for “12 (SLWPDPMEV; listed as Homo sapiens) [compound 12]”, the entry is “″+++″ (≥50% = +++)”; as for “594 (IMLKGDNITL; listed as Homo sapiens) [compound 594]”, “″+++″ (≥50% = +++)”. As for “288 (NLINEINGV; listed as Homo sapiens) [compound 288]”, the entry is “″+++″ (≥50% = +++)”. On to “70 (GLLDYPVGV; listed as Homo sapiens) [compound 70]”, for which the Peptide exchange result is “″+++″ (≥50% = +++)”. For the substance “506 (KLLGKVETA; listed as Homo sapiens) [compound 506]”, the Peptide exchange entry was “″+++″ (≥50% = +++)”. The same measure for “184 (YLMDINGKMWL; listed as Homo sapiens) [compound 184]”: “″+++″ (≥50% = +++)”; for “434 (KVSNSGITRV; listed as Homo sapiens) [compound 434]”: “″++″ (≥20% = ++)”.

As for “274 (SLLFSLFEA; listed as Homo sapiens) [compound 274]”, the Peptide exchange entry was “″++″ (≥20% = ++)”. As for “246 (LLWEVVSQL; listed as Homo sapiens) [compound 246]”, the entry is “″+++″ (≥50% = +++)”. The same measure for “212 (ALWDQDNLSV; listed as Homo sapiens) [compound 212]”: “″++″ (≥20% = ++)”; for “178 (ALTEIAFVV; listed as Homo sapiens) [compound 178]”: “″++++″ (≥75% = ++++)”. The same measure for “125 (VQIHQVAQV; listed as Homo sapiens) [compound 125]”: “″+++″ (≥50% = +++)”; for “463 (SLVESHLSDQLTL; listed as Homo sapiens) [compound 463]”: “″+++″ (≥50% = +++)”. Take “386 (ILFRYPLTI; listed as Homo sapiens) [compound 386]”: the Peptide exchange entry is listed as “″+++″ (≥50% = +++)”.

As for “83 (ILAPTVMMI; listed as Homo sapiens) [compound 83]”, the Peptide exchange result is reported as “″+++″ (≥50% = +++)”. The same measure for “346 (LLDSKVPSV; listed as Homo sapiens) [compound 346]”: “″+++″ (≥50% = +++)”. The same measure for “304 (MTLGQIYYL; listed as Homo sapiens) [compound 304]”: “″+++″ (≥50% = +++)”; for “598 (FLFPHSVLV; listed as Homo sapiens) [compound 598]”: “″+++″ (≥50% = +++)”. The same measure for “93 (LLQAIKLYL; listed as Homo sapiens) [compound 93]”: “″++″ (≥20% = ++)”; for “53 (KMIETDILQKV; listed as Homo sapiens) [compound 53]”: “″++++″ (≥75% = ++++)”; for “224 (TLIDAQWVL; listed as Homo sapiens) [compound 224]”: “″+++″ (≥50% = +++)”.

Take “426 (RLADKSVLV; listed as Homo sapiens) [compound 426]”: the Peptide exchange result was “″+++″ (≥50% = +++)”.

Take “46 (ILTEENIHL; listed as Homo sapiens) [compound 46]”: the Peptide exchange result is given as “″+++″ (≥50% = +++)”. The same measure for “126 (VLAYFLPEA; listed as Homo sapiens) [compound 126]”: “″++++″ (≥75% = ++++)”; for “351 (SLIPNLRNV; listed as Homo sapiens) [compound 351]”: “″+++″ (≥50% = +++)”; for “145 (FLATSGTLAGI; listed as Homo sapiens) [compound 145]”: “″++″ (≥20% = ++)”. Regarding “332 (YLISELEAA; listed as Homo sapiens) [compound 332]”, the Peptide exchange entry is given as “″+++″ (≥50% = +++)”. As for “593 (GLPRFGIEMV; listed as Homo sapiens) [compound 593]”, the entry is “″+++″ (≥50% = +++)”; as for “412 (YLDDLNEGVYI; listed as Homo sapiens) [compound 412]”, “″++″ (≥20% = ++)”.

For the substance “277 (LLPPLESLATV; listed as Homo sapiens) [compound 277]”, the Peptide exchange result is “″++″ (≥20% = ++)”.

“459 (ALITEVVRL; listed as Homo sapiens) [compound 459]”: the Peptide exchange result is “″++″ (≥20% = ++)”.

Turning to “129 (GLLDGGVDILL; listed as Homo sapiens) [compound 129]”, the Peptide exchange result is reported as “″+++″ (≥50% = +++)”. On to “17 (GLLPGDRLVSV; listed as Homo sapiens) [compound 17]”, for which the Peptide exchange entry was “″+++″ (≥50% = +++)”. As for “231 (FLSPQQPPLLL; listed as Homo sapiens) [compound 231]”, the entry is “″++″ (≥20% = ++)”; as for “527 (FLLEPGNLEV; listed as Homo sapiens) [compound 527]”, “″++++″ (≥75% = ++++)”.
